Results: publication PMC9710872

Biological target: SARS-CoV-2 spike (S) protein, unlabelled (ACROBiosystems) (SARS-CoV-2) (UniProt P0DTC2)
Assay: SPR

Question: For “recombinant NRP1 (ACROBiosystems), SPR analyte (from UniProt O14786) (natural protein)”, which Kd is on record?
Answer: 89.4 nM
